Assay results from patent US20240254222A1 (Bayer, published 2024).
Positions count from the first letter of the chain named. Each block holds one binder with its values, some of them ahead of it.

Key:
Assay in all cases: SPR, captured antibody, Sema3A domain analyte
[1] = molecular target: T1, Cyno Semaphorin3A-Sema Domain, TPP-19122 (cynomolgus (Macaca fascicularis), UniProt Q63548 21-569 (rat entry), limits assumed)
T1 construct: produced inhouse
T1 chain: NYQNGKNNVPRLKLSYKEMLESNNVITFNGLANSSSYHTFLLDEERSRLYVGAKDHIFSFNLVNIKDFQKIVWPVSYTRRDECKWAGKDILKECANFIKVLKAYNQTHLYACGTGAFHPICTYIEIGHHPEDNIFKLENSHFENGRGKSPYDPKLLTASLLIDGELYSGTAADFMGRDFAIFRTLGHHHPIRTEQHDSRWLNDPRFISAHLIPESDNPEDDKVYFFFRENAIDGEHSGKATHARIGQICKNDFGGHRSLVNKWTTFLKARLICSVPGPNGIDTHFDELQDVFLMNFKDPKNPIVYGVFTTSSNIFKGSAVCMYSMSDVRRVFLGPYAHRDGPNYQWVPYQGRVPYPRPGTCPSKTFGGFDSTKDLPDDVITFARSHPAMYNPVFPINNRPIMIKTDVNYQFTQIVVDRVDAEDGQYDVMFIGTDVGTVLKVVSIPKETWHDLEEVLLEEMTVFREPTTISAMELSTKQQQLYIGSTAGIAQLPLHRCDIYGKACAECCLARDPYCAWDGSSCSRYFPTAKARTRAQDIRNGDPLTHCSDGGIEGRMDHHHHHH
Outline: (§1)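 Kinetics fitted to a 1:1 Langmuir model after double referencing; glycine pH 2.0 regeneration. Sema3A domain analytes (several species) ran at […]-3.125 nM multi-cycle or single 100 nM; Fc-tagged Sema3A at 1.56-200 nM over Fab-captured antibody, otherwise Fc capture. Buffer HBS P+ plus 300 mM NaCl, CaCl₂, MgCl₂, BSA, 25° C.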

[2] = molecular target: T2, Rat Semaphorin3A-Sema Domain, TPP-19120 (rat, UniProt Q63548 21-569)
T2 construct: produced inhouse
T2 sequence: T1 chain with Q3A, I126V, E138Q, N139D, F296S, I444V, I489V
Outline: as §1

[3] = molecular target: T3, Pig Semaphorin3A-Sema Domain, TPP-20176 (pig, UniProt Q63548 21-569 (rat entry))
T3 construct: produced inhouse
T3 chain: T1 chain with N139D, S237T, F296S, I303V, I483V, T486A, I489V
Outline: as §1

Kd [1]: 63 nM
Kd [2]: 33 nM
Kd [3]: 100 nM
B1: TPP-11489 (antibody, human IgG1, lambda)
heavy: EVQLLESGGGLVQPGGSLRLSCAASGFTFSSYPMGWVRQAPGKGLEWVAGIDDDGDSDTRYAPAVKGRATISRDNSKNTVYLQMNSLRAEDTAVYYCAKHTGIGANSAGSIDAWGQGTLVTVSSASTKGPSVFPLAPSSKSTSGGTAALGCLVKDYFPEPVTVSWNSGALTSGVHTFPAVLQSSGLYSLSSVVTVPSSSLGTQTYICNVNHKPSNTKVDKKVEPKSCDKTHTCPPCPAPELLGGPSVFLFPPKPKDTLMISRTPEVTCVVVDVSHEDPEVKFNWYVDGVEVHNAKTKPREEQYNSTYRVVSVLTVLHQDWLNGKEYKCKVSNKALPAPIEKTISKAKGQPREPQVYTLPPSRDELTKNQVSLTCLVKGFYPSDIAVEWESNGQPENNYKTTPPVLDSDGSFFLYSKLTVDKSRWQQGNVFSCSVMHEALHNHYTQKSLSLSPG
light: SYELTQPPSVSVSPGQTARITCSGGGSYTGSYYYGWYQQKPGQAPVTVIYYNNKRPSDIPERFSGSLSGTTNTLTISGVQAEDEADYYCGSADNSGDAFGTGTKVTVLGQPKAAPSVTLFPPSSEELQANKATLVCLISDFYPGAVTVAWKADSSPVKAGVETTTPSKQSNNKYAASSYLSLTPEQWKSHRSYSCQVTHEGSTVEKTVAPTECS
notes: human IgG1; also called Chiome; Chiome Prior Art (hIgG1)

Kd [1]: 46 nM
Kd [2]: 9.8 nM
Kd [3]: 7.2 nM
B2: TPP-15374 (antibody, human IgG1, lambda, V domains shown)
VH: EVQLLESGGGLVQPGGSLRLSCAASGFTFSSYEMNWVRQAPGKGLEWVSGISWNSGSIGYADSVKGRFTISRDNSKNTLYLQMNSLRAEDTAVYYCARSGYSSSWFDPDFDYWGQGTLVTVSS
VL: QSVLTQPPSASGTPGQRVTISCTGSSSNIGAGYDVHWYQQLPGTAPKLLIYGNSNRPSGVPDRFSGSKSGTSASLAISGLRSEDEADYYCSSYAGSNPYVVFGGGTKLTVLG
notes: human IgG1; also called IgG1, hit from panning; parental mAb

binding result [1]: no binding
binding result [2]: no binding
binding result [3]: no binding
B3: TPP-30792 (antibody, human IgG1, lambda, V domains shown)
V domain 1: EVQLLESGGGLVQPGGSLRLSCAASGFTFRSYAVHWVRQAPGKGLEWVSSTEGSGVGTSYTDSVKGRFTISRDNSKNTLYLQMNSLRAEDTAVYYCARMLGGGNPLDYLDYWGQGTLVTVSS
V domain 2: QSVLTQPPSASGTPGQRVTISCSGSSSNLGEGYDVHWYQQLPGKAPKLLIYYSDFRPSGVSDRFSGSKSGTSASLAISGLQSEDEADYYCAAWDDSLSSQVFGGGTQVTVLG
notes: IgG1; prior art, WO 2020/261281; also called 3H4 Univ Ramot; 3H4 (Ramot) Clon I
